assay: yeast display, Sf9 membrane polyspecificity reagent, FACS + sequencing; frameworks hold sequencing errors
Procedure, shortened: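 Galactose induction of a Saccharomyces cerevisiae BJ5465 synthetic nanobody display library ran 36–48 hours. The cells were then stained for 1 hour at 4 °C with 10% biotinylated, detergent-solubilized Sf9 membrane reagent, pulled down on streptavidin microbeads and FACS-sorted into low and high (top ~1%) gates on expression and reagent-binding fluorescence. Labels for polyreactivity follow the gate of origin.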

Sequence | polyreactivity (PSR sort gate)
QVQLVESGGGLVLAGGSLRLSCAASGRIYVFYAMGWYRQAPGKEREFVATISYSGDTTYYADSVKGRFTISRDNAKNTVYLQMNSLTPEDTAVYYCAADQVPSYYYVPLGYDSWGQGTQVTVSS | low polyreactivity
QVQLVESGGGLVQAGGSLRLSCASSGSTFHVNAMGWYRQAPGKERELVARISSTGRTSYADSVKGRFTISRDNAKNTVYLQMNSLKPEDTAVYYCAARYYRVYVSSDYYYWGQGTQVTVSS | high polyreactivity
QVQLVESGGCLVQAGGSLRLSCAASGGTFRGYAMGWYRQAPGKETELVAASSTSGSRTSYADSVKGRFTISRDNAKNTVYLQMNSLKPEDNAVYYCNADPIHGVYSRFRLGGYWGQGTQVTVSS | high polyreactivity
QVQLVESGGGLVQAGGSLRLSCAASGRTFKNYAMGWYRQAPGKERELVAAISRRGSSTYYADSVKGRFTISRDNAKNTVYLQMNSLKPEDTAVYYCNAVKFTYGWLGYWGQGTQVTVSS | high polyreactivity
QVQLVESGGGLVQAGGSLRLSCAASGSTFGHYAMGWYRQAPGKERELVAVISRSGARTYYADSVKGRFTISRDNAKNTVYLQMNSLKPEDTAVYYCNAGPYGGNPFDYWGQGTQVTVSS | high polyreactivity
QVQLVESGGGLVQAGGSLRLSCAASVYTFYKYAMGWYRQAPGKERELVAAISSSGGSTYYADSVKGRFTISRDNAKNTVYLQMNSLKPEDTAVYYCAAYVYSNDYDYWGQGTQVTVSS | high polyreactivity
QVQLVESGGGLVQAGGSLRLSCAASGRTLPAYAMGWYRQAPGKERELVAAISWGGGSTYYADSVKGRFTISRDNAKKTVYLQMNSLKPEDTAVYYCAVAGYWFAVAEYDYWGQGTQVTVSS | low polyreactivity
QVQLVESGGGLVQAGGSLRLSCAASGSTFRRNAMGWYRQAPGKERELVAAISGSGGSTYYADSVKGRFTISRDNAKNTVYLQMNSLKPEDTAVYYCAARVVKNYKSDSWGQGTQVTVSS | high polyreactivity
QVQLVESGGGLVQAGGSLRLICAASGYIFKYYAMGWYRQAPGKERELVATINYSGGGTYYADSVKGRFTISRDNAKNTVYLQMNSLKPEDTAVYYCAAREKYISYSYYYWGQGTQVTVSS | high polyreactivity
QVQLVESGGGLVQAGGSLRLSCASSGSIFTRYAMGWYRQAPGKERELVAAISRRGGSTYYADSVKGRFTISRDNAKNTVYIQMNSLKPEDTAVYYCYPYYIASTFDYWGQGTQVTVSS | high polyreactivity
QVQLVESGGGLVQAGGSLRFSCADSGFTFRTYAMGWYIQAPGKERELVATIRRAGSTYYADSVKGRFTISRDNAKNTVYLQMNSLKPEDTAVYYCAATHYSFSWGYDYWGQGTQVTVSS | high polyreactivity
QFQLVESGGGLVQAGGSLRLSCAASGIIFSLYAMGWYIQAPGKERELVAAITTGGRTYYADSVKGRFTISRDNAKNTVYFQMNSLKPEDTAVYYCAAQGPWQGGTTLSTNRGYWGQGTQVTVSS | high polyreactivity
QVQLVESGGGLVQAGGSLRLSCAASGRTFRYNAMGWYRQAPGKERELVAAISGRGSSTYYSDSVKGRFTISRDNAKNTVYLQMNSLTPEDTAVYYCAALPASVRRPAWHDYWGQGTQVTVSS | high polyreactivity
QVQLVESGGGLVQAGGSLRLSCAASGSTSARYAMGWYRQAPGKERELVATITRSGTTKYADSVKGRFTISRDNAKNTVYLQMNSLKPEDTAVYYCNTDTYFPLYDYWGQGTQVTVSS | low polyreactivity
QVQLVESVGGLDQAGGSLRLSCAASGSTFRYYVMGWYRQAPGKERELVAGITRGGSTNYADSVKGRFTISRENAKNTVYLQMNSLKPEDTAVYYCASRGGWKRPFGYQLQYDYWGQGTQLTVSS | high polyreactivity
QVQLVESGGGLVQAGGSLRLSCAASGRTFSYYAMGWYRQAPGKERELVAVISVSGGSTYYADSVKGRFTISRDNAKNTVYLQMNSLKPEDTAVYYCNVDLYYGYDYWGQGTQVTVSS | low polyreactivity
QVQLVESGGGLVQAGGSLRLSCDASGIIFGFNTMGWYRQAPVKERELVAAINGSDGSTYADSVKGRFTISRDNAKNTVYLQMISVKPEDTAVYYCAKALDYRYRRYDYWGQGTQVTVSS | low polyreactivity
QVQLVESGGGLVQAGGSLRLSCAASGNIFATYAMGWYRQAPGKESELVAAITSSGGRTYYADSVKGRFTISRDNAKISVYLQMNSLKPEDTAVYNCNAVYSLYYTRYNYWGHGTQVTVSS | high polyreactivity
QVQLVESGGGLVQAGGSLSLICADTGLTFRVYAMGWYRQAPGKERELVAAISSRGGSTYYADSVKGRFTISRDNAKYTVLLQMNSLKPEDTAVYDCYARGQGGYWGQGTQVTVSS | high polyreactivity
QVQLVESRGGLVQAGCSLRLSCAASGSIFLHKAMGWYRQAPGKERELVAVITSRGGSTYYADSVKGRFTISRDNAKITVYVQMNSLNPEDPAVYYCAAPDYHKRTSRGDYWGQGTQVTVSS | low polyreactivity
QVQLVESGGGLVQAGGSLRLSCAASGRIFDYYTMGGYRQAPGKETELVAAINWSGGSTYYADSVKGRFTISRDNAKNTVYLQMNSLKPEDTAVYYCATLSYGREYGYWGQGTQVTVSS | low polyreactivity

From the nanobody polyreactivity screen of Harvey et al. (2022)
